According to patent publication US20110064740A1 (GlaxoSmithKline, published 2011):
Ends that are not written are not given here. * marks the point of attachment. Biotin = O=C1N[C@H]2[C@H](CS[C@H]2CCCCC(=O)*)N1

Key:
[1] = target: T1, Set (B) peptide encompassing amino acids 1-7 of the β-amyloid peptide, DAEFRHD--GSGGSGGSK-biotin; assay: SRU BIND biosensor, peptide set (B)
T1 peptide: DAEFRHDGSGGSGGSK(Biotin)

[2] = target: T2, Set (B) peptide encompassing amino acids 1-6 of the β-amyloid peptide, DAEFRH--GSGGSGGSGK-biotin; assay: SRU BIND biosensor, peptide set (B)
T2 peptide: DAEFRHGSGGSGGSGK(Biotin)

[3] = target: T3, Set (B) peptide encompassing amino acids 1-5 of the β-amyloid peptide, DAEFR--GSGGSGGSGSK-biotin; assay: SRU BIND biosensor, peptide set (B)
T3 peptide: DAEFRGSGGSGGSGSK(Biotin)

[4] = target: T4, Peptide APP1, AcNH-SEVKMDAEFRHDGSGK-biotin; assay: Biacore, peptide on streptavidin chip
T4 construct: also called APP derived peptide APP1
T4 peptide: Ac-SEVKMDAEFRHDGSGK(Biotin)
Protocol: (§1) In addition to the experiments described above, the Biacore™ 3000 optical biosensor was used to monitor the binding of 2E7 antibody to selected β-amyloid sequence derived peptides. Binding was measured by injecting test antibodies at up to 64 nM for 5 minute over peptides captured on separate streptavidin chip surfaces (130-230 RU (resonance units)). A running buffer (HBS-EP) containing 0.01 M HEPES pH7.4, 0.15 M NaCl, 3 mM EDTA and 0.005% Surfactant P20™ at 25° C. was used at a flow rate of 20 ul/min. All runs were double referenced against a blank streptavidin surface and blank injections. Analysis was carried out using the Biacore™ analysis software BIAevaluation™ version 4.1.
In a study similar to the epitope mapping study on 2E7 using the Surface Plasmon Resonance assay described above, H2L1 behaved similarly to 2E7 in binding to the peptide encompassing amino acids 1-12 (Aβ1, SEQ ID No:15) of the β-amyloid peptide and not to the peptide encompassing amino acids 2-13 of the β-amyloid peptide (Aβ2-13, SEQ ID No:44).

[5] = target: T5, Peptide Aβ2-13, AEFRHDSGYEVHGSGK-biotin; assay: Biacore 3000, peptide on streptavidin chip
T5 construct: The range counts on the β-amyloid peptide; also called 2-13 peptide; β-amyloid peptide 2-13
T5 peptide: Ac-AEFRHDSGYEVHGSGK(Biotin)
Protocol: as §1
In a separate experiment the β-amyloid 1-40 peptide was captured via its N-terminal aspartic acid residue that had been biotinylated. This peptide was captured onto a Biacore™ streptavidin coated chip as previously described. Antibody 2E7 injected at 66 nM for 1 minute could not bind this peptide. Therefore, it is concluded that the previously descibed N-terminal binding site was masked by the linker and capture method, thus further confirming the extreme N-terminus as containing the core binding site

[6] = target: T6, human beta-amyloid peptide (1-40) (human, UniProt P05067 672-711); assay: SPR Biacore 3000, Method A(ii): β-amyloid amine-coupled to CM5 chip, antibody 1-64 nM as analyte
T6 construct: domain: beta-amyloid peptide (1-40); Unlabelled peptide: amine-coupled to a CM5 chip (Method A(ii)) or in solution as analyte (Method B); also called beta-amyloid (1-40)
Protocol: (§2) (i) Briefly, <20 resonance units of beta-amyloid 1-40 peptide (biotinylated at the C-terminus) were captured on a streptavidin biosensor chip (as used for Table 10A). The antibodies were diluted down in HBS-EP buffer and passed over the streptavidin/beta-amyloid surface at concentrations ranging from 0.001 nM-8 nM (for Table 10A). Two separate runs were carried out; each run was carried out on a new streptavidin/beta-amyloid surface. Runs 1 and 2 were essentially the same though there were some differences in the parameters used; Run 1 was carried out using a chip surface on which 16 RU's of beta-amyloid were captured, and antibody concentrations of 0.001 nM-8 nM were used, an association time of 4 minutes and a dissociation time of 20 minutes were used at a flow rate of 50 μl per minute. For Run 2, less than 10 RU's of beta-amyloid were captured and antibody concentrations of 0.003125 nM-8 nM were used. The flow rate and association times were the same as Run 1, however the dissociation time was reduced to 15 minutes. (ii) Beta amyloid (1-40) and (1-42) were amine-coupled on different surfaces of a CM5 biosensor chip to a level of <20 resonance units (as used for Table 10B). The antibodies were diluted down in HBS-EP buffer and passed over the biosensor/beta-amyloid surface at concentrations ranging from 1 nM-64 nM (as used for Table 10B).
(§3) In both methods, regeneration was via a pulse of 100 mM H₃PO₄, and for Table 10A data also followed by a pulse of 50 mM NaOH. […] All runs were double referenced against buffer blank injections. Analysis was carried out using the Biacore™ analysis software BIAevaluation version 4.1.

[7] = target: T7, human beta-amyloid peptide (1-42) (human, UniProt P05067 672-713); assay: as above
T7 construct: domain: beta-amyloid peptide (1-42); Unlabelled peptide: amine-coupled to a CM5 chip (Method A(ii)) or in solution as analyte (Method B); also called beta-amyloid (1-42)
Protocol: as §2, §3

[8] = target: T8, human Aβ peptide (1-40) biotinylated at the C terminus (human, UniProt P05067 672-711, biotinylated at the C-terminus); assay: SPR Biacore 3000, Method A(i): C-terminally biotinylated β-amyloid 1-40 on streptavidin chip, antibody as analyte; Run 1
T8 construct: domain: β-amyloid peptide (1-40); Numbers 1-40 count on the β-amyloid peptide, not on APP; also called beta-amyloid 1-40 peptide (biotinylated at the C-terminus); streptavidin-captured beta-amyloid (1-40)
Protocol: as §2, §3

[9] = target: T8, human Aβ peptide (1-40) biotinylated at …; assay: SPR Biacore 3000, Method A(i): C-terminally biotinylated β-amyloid 1-40 on streptavidin chip, antibody as analyte; Run 2
Protocol: as §2, §3

[10] = target: T8, human Aβ peptide (1-40) biotinylated at …; assay: SPR Biacore 3000, Method A(i): C-terminally biotinylated β-amyloid 1-40 on streptavidin chip, antibody as analyte; Average(SD) of two runs
Protocol: as §2, §3

[11] = target: T6, human beta-amyloid peptide (1-40); assay: SPR Biacore 3000, Method B: antibody captured on anti-mouse IgG surface, β-amyloid 4-500 nM as analyte; n = 3; peptide length not given
Protocol: In the second instance the assay was reversed, in that antibodies were first captured to a level of 1000-2500 resonance units on an anti-mouse IgG polyclonal antibody surface (for recombinant mouse 2E7 MAb) or a protein A surface (for humanized H2L1) of a CM5 biosensor chip. Freshly prepared beta-amyloid (1-40) or (1-42) was diluted down in HBS-EP buffer and passed over the captured-antibody surface at concentrations ranging from 4-500 nM (Table 10C and 10D).
as §3

T7 sequence (P05067 672-713 limits assumed): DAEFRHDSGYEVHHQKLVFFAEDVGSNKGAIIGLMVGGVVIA
T6 sequence (P05067 672-711 limits assumed): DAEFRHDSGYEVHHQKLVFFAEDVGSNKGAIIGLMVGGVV
T8 sequence (P05067 672-711 limits assumed): as above

B1: Mouse monoclonal antibody 2E7 (antibody, mouse IgG2a, V domains shown)
VH: EVKLVESGGGLVQPGGSLKLSCAVSGFTFSDNGMAWVRQAPRKGPEWIAFISNLAYSIDYADTVTGRFTISRDNAKNTLYLEMSSLRSEDTAMYYCVSGTWFAYWGQGTLVTVSA
VL: DVVLTQTPLSLPVSLGDQASISCRVSQSLLHSNGYTYLHWYLQKPGQSPKLLIYKVSNRFSGVPDRFSGSGSGTDFTLKISRVEAEDLGVYFCSQTRHVPYTFGGGTKLEIK
notes: Murine IgG2a heavy chain, murine kappa light chain; also called 2E7 MAb; parental mouse 2E7 MAb
binding result [1]: binds
binding result [2]: binds
binding result [3]: binds
binding result [4]: no binding
binding result [5]: no binding (tested: up to 64 nM)
Kd [6]: 0.317 nM
koff [6]: 0.000128 s⁻¹
kon [6]: 405000 M⁻¹ s⁻¹
Kd [7]: 0.394 nM
koff [7]: 0.000151 s⁻¹
kon [7]: 382000 M⁻¹ s⁻¹
Kd [8]: 0.0383 nM
Kd [9]: 0.0338 nM
Kd [10]: 0.0361 nM
Kd [11]: 1.58 nM
koff [11]: 0.000428 s⁻¹
kon [11]: 283000 M⁻¹ s⁻¹
